Test results taken from patent US8790663B2, “Antigenic determinants of human death receptor DR5” (Institute of Basic Medical Sciences, Chinese Academy of …, priority 2009, dated 2014).
Blank lines part the entries; values can stand above or below the substance they belong to.

How the values were obtained:
[1] = tested on: AD5-10; test: Synthetic peptides binding AD5-10 and blocking its tumoricidal activity on Jurkat cells; assay type: cell-based, mouse
Description: (§1) The human lymphocyte leukemia Jurkat cells in exponential phase were seeded in the 96-well plate at the density of 2×10^4/well. Then synthetic peptides were sufficiently mixed with AD5-10 according to corresponding concentrations and incubated at 37° C. for 1 h. The mixture was then added to the culture wells containing the tumor cells. CCK-8 agent (Dojindo Laboratories, Kumamoto, Japan) was used and the OD values (wavelength […]) were detected 2 h after the reaction. The OD value of the wells having no cells was set to be “0”, the Relative cell viability=OD value of treated well/OD value of untreated sample×100%.

[2] = tested on: AD5-10; test: Oriented Peptide Array Library: binding of peptides to AD5-10; design: species or system mouse; conditions: for binding capabilities to AD5-10 (antigenicity): AD5-10 2 μg/ml
Text: A series of the derivative peptides comprising the core peptide (as shown in Tab. 1 and 2) were synthesized according to the amino acid sequence of human DR5 (NCBI Acc #: NP_671716.1) provided in NCBI protein database. Subsequently, the peptide arrays as said above were spotted on nitrocellulose membranes using an ASP222 SPOT robot workstation (one dot corresponds to one polypeptide of which the concentration is about 5 nmol), the homogenicity of the protein amount was detected with ninhydrin staining before the corresponding detection. The membrane was blocked with 3% BSA in TBS-T solution for 1 h at room temperature and followed by incubation with corresponding specific primary antibodies (the final concentration is 2 μg/ml) at 4° C. over night. The array membrane was then incubated with HRP-conjugated goat anti-mouse polyclonal antibodies for 2 h at room temperature and then chromogenic substrate ECL was added to develop the membrane.

[3] = tested on: human colon cancer cells HCT116; test: Tumoricidal activity to human colon cancer cells HCT116 (microscopy, CCK-8); assay type: cell-based
Description: HCT116 cells were treated with TRAIL, AD5-10 and monoclonal antibodies Adie-1 and Adie-2 of different concentrations. […] The OD value of the wells having no cells was set to be “0”, the Relative cell viability=OD value of treated well/OD value of untreated sample×100%.

[4] = tested on: human T lymphocyte leukemia Jurkat cells; test: Cell viability of Jurkat cells (CCK-8); assay type: cell-based; conditions: different concentrations, 8 hours
Description: as §1

[5] = peptide at different concentrations

Substance: AITQQDLAPQQRA (wild type epitope 2) [wild-type epitope 2]
binding to AD5-10 and blocking of its cytotoxicity ([1]; peptide 10 μM): can bind to AD5-10 and block its cytotoxicity
binding to AD5-10 and blocking of its cytotoxicity [1, 5]: can bind to AD5-10 and block its cytotoxicity

binding capabilities to AD5-10 (antigenicity) [2]: the strongest
Substance: ALITQQDLAPQQ (Extended sequence of SEQ ID NO. 1 which extends from the N-terminal of the said amino acid sequence to the C-terminal of the amino acid sequence in accordance with the amino acid sequence of DR5)

Substance: AQITQQDLAPQQRA (wild type epitope 1) [wild-type epitope 1]
binding to AD5-10 and blocking of its cytotoxicity ([1]; peptide 10 μM): can bind to AD5-10 and block its cytotoxicity
binding to AD5-10 and blocking of its cytotoxicity [1, 5]: can bind to AD5-10 and block its cytotoxicity

binding capabilities to AD5-10 (antigenicity) [2]: the strongest
Substance: ITQQDLAPQQRA (Extended sequence of SEQ ID NO. 1 which extends from the N-terminal of the said amino acid sequence to the C-terminal of the amino acid sequence in accordance with the amino acid sequence of DR5)

Substance: QDLAP (Antigenic determinants recognized by the mouse anti-human death receptor DR5 monoclonal antibody AD5-10)
epitope recognized by AD5-10 [2]: shortest amino acid sequence of the epitope recognized by AD5-10

Substance: TRAIL: tumor necrosis factor-related apoptosis inducing ligand, natural ligand for death receptors DR4 and DR5
morphological changes and cell death characteristics of HCT116 cells observed under microscope ([3]; 500 ng/ml, 8 h): Apparent morphological changes and cell death characteristics
cell viability of HCT116 cells ([3]; different concentrations, CCK-8): notably reduced with the increase of the treatment concentrations
cell viability of Jurkat cells [4]: can inhibit the cell viability of human T lymphocyte leukemia Jurkat cells in a dose-dependent manner

Substance: mutant epitope 1: synthetic peptide of wild-type epitope 1 with the key amino acid residues mutated (AQITQQDAAPQQRA; mutant epitope 1)
binding to AD5-10 and blocking of its cytotoxicity ([1]; peptide 10 μM): cannot bind to AD5-10

Substance: mutant epitope 2: synthetic peptide of wild-type epitope 2 with the key amino acid residues mutated (AITQQDAAPQQRA; mutant epitope 2)
binding to AD5-10 and blocking of its cytotoxicity ([1]; peptide 10 μM): cannot bind to AD5-10
